According to IntAct's records for PubMed 16525023:

B1: 1-phosphatidylinositol 4,5-bisphosphate phosphodiesterase gamma-1 (Homo sapiens), P19174 (parent)
chain: MAGAASPCANGCGPGAPSDAEVLHLCRSLEVGTVMTLFYSKKSQRPERKTFQVKLETRQITWSRGADKIEGAIDIREIKEIRPGKTSRDFDRYQEDPAFRPDQSHCFVILYGMEFRLKTLSLQATSEDEVNMWIKGLTWLMEDTLQAPTPLQIERWLRKQFYSVDRNREDRISAKDLKNMLSQVNYRVPNMRFLRERLTDLEQRSGDITYGQFAQLYRSLMYSAQKTMDLPFLEASTLRAGERPELCRVSLPEFQQFLLDYQGELWAVDRLQVQEFMLSFLRDPLREIEEPYFFLDEFVTFLFSKENSVWNSQLDAVCPDTMNNPLSHYWISSSHNTYLTGDQFSSESSLEAYARCLRMGCRCIELDCWDGPDGMPVIYHGHTLTTKIKFSDVLHTIKEHAFVASEYPVILSIEDHCSIAQQRNMAQYFKKVLGDTLLTKPVEISADGLPSPNQLKRKILIKHKKLAEGSAYEEVPTSMMYSENDISNSIKNGILYLEDPVNHEWYPHYFVLTSSKIYYSEETSSDQGNEDEEEPKEVSSSTELHSNEKWFHGKLGAGRDGRHIAERLLTEYCIETGAPDGSFLVRESETFVGDYTLSFWRNGKVQHCRIHSRQDAGTPKFFLTDNLVFDSLYDLITHYQQVPLRCNEFEMRLSEPVPQTNAHESKEWYHASLTRAQAEHMLMRVPRDGAFLVRKRNEPNSYAISFRAEGKIKHCRVQQEGQTVMLGNSEFDSLVDLISYYEKHPLYRKMKLRYPINEEALEKIGTAEPDYGALYEGRNPGFYVEANPMPTFKCAVKALFDYKAQREDELTFIKSAIIQNVEKQEGGWWRGDYGGKKQLWFPSNYVEEMVNPVALEPEREHLDENSPLGDLLRGVLDVPACQIAIRPEGKNNRLFVFSISMASVAHWSLDVAADSQEELQDWVKKIREVAQTADARLTEGKIMERRKKIALELSELVVYCRPVPFDEEKIGTERACYRDMSSFPETKAEKYVNKAKGKKFLQYNRLQLSRIYPKGQRLDSSNYDPLPMWICGSQLVALNFQTPDKPMQMNQALFMTGRHCGYVLQPSTMRDEAFDPFDKSSLRGLEPCAISIEVLGARHLPKNGRGIVCPFVEIEVAGAEYDSTKQKTEFVVDNGLNPVWPAKPFHFQISNPEFAFLRFVVYEEDMFSDQNFLAQATFPVKGLKTGYRAVPLKNNYSEDLELASLLIKIDIFPAKENGDLSPFSGTSLRERGSDASGQLFHGRAREGSFESRYQQPFEDFRISQEHLADHFDSRERRAPRRTRVNGDNRL

Variants of: B1
Conditions: with akt1_human AKT1, P31749
akt1_human AKT1, P31749, sequence (P31749 whole entry): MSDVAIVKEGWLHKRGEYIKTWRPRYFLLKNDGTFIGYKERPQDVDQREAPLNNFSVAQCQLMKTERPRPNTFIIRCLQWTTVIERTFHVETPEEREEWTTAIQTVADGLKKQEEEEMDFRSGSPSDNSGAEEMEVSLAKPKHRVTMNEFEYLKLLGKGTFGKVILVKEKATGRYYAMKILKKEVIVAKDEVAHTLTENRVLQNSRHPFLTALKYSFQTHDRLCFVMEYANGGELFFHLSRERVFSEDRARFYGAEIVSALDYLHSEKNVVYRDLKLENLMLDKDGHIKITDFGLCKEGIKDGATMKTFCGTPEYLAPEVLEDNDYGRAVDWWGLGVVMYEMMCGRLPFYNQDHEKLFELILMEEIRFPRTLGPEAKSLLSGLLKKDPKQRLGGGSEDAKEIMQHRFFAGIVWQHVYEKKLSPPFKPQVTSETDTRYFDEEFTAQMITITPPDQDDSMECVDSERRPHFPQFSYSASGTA

| effect of a mutation on the interaction | Variant |
| --- | --- |
| disrupting interaction | Y783F |
| decreasing interaction | Y771F |
